Assay results from publication PMC3686892.

Tested on: C=C(OP(=O)(O)O)C(=O)O
Test: anti-pHis dot-blot assay of autophosphorylation velocity
Assay type: biochemical, Escherichia coli
Settings: phosphoryl donor; n = 3

enzyme I (PtsI) (Escherichia coli K-12)
Km: 135 ± 30 µM
